Test system: IGF-1
Experiment: Plasma IGF-1 level in hypophysectomised female Wistar rats (radioimmunoassay)
Assay type: in vivo
Details: dose of 100 μg/rat
Protocol: In vivo experiments performed in the context of the present invention were carried out on 19 batches of hypophysectomised female rats of the Wistar strain, each batch comprising 5 rats. These animals were hypophysectomized when 4 weeks old and then kept under observation for one week. During an additional week of observation, the animals were weighed and those having gained more than 5 grams […] were discarded. In fact, it was assumed that the hypophysectomy of these animals was incomplete. They are thus not suitable for use in the framework of the present experiments.
Each animal selected receives a T4 thyroid hormone and cortisone replacement treatment. These hormones are administered subcutaneously each day at 50 μg/100 g body weight in the case of cortisone and 1 μg/100 g body weight in the case of T4. Usually a slight weight gain is observed following the injection of these hormones. This hormone supplementation treatment is administered for one week during which the animals continue to be weighed daily. These animals are from then on suitable for use in a comparative evaluation of the somatogenic activity of bGH incubated with or without different peptide constructions having the sequence 104-113 or the sequence 35-53 in the case of the GH peptide described in EP 284406. […]

B1: bovine growth hormone (protein)
chain: AFPAMSLSGLFANAVLRAQHLHQLAADTFKEFERTYIPEGQRYSIQNTQVAFCFSETIPAPTGKNEAQQKSDLELLRISLLLIQSWLGPLQFLSRVFTNSLVFGTSDRVYEKLKDLEEGILALMRELEDGTPRAGQILKQTYDKFDTNMRSDDALLKNYGLLSCFRKDLHKTETYLRVMKCRRFGEASCAF
IGF level relative to baseline levels in control hypophysectomized animals: eight times higher than the baseline levels
mean IGF levels (hypophysectomized rats): 60 ng/mL
